Literature values as cited in publication PMC4026351.
pKd: −log10 of the molar value. Where two headings read alike, the source gives them in different places.

How the values were obtained:
BtuB (Escherichia coli) [1] = target: BtuB (Escherichia coli) (UniProt P06129)
BtuB (Escherichia coli) [2] = target: BtuB (Escherichia coli) (UniProt P06129); remark: listed apart in the source

Chain of UniProt P06129 (P06129 21-614): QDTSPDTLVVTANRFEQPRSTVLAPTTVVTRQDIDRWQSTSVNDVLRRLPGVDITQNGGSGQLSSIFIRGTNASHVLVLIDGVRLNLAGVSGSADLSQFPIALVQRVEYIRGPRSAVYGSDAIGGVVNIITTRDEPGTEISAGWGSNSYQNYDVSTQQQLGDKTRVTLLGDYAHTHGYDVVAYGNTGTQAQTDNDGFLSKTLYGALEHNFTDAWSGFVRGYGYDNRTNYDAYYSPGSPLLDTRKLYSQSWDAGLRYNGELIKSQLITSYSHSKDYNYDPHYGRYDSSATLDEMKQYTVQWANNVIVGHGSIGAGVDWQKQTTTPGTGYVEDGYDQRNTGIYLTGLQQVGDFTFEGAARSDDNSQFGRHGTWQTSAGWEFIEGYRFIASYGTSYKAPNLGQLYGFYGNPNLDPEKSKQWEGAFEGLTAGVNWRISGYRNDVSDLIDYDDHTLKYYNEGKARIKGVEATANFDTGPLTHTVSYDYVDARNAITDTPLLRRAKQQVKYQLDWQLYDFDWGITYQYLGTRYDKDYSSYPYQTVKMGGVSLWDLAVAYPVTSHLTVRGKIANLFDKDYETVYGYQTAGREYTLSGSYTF

| Substance | pKd (BtuB (Escherichia coli) [1]) | pKd (BtuB (Escherichia coli) [2]) |
| --- | --- | --- |
| colicin E3 R-domain (from UniProt P00646) | 8.82 |  |
| colicin E2 R-domain (from UniProt P04419) |  | 8.82 |
